# Data as given in patent publication US20060058229A1, “Peptides and methods for cell death regulation” (priority 2002, published 2006).
# T1: Diap1 in Cos-7 cells (Drosophila melanogaster, UniProt Q24306)
# T1 construct: expressed in transfected cells; host or cells: Cos-7
# T1 sequence (Q24306 1-438): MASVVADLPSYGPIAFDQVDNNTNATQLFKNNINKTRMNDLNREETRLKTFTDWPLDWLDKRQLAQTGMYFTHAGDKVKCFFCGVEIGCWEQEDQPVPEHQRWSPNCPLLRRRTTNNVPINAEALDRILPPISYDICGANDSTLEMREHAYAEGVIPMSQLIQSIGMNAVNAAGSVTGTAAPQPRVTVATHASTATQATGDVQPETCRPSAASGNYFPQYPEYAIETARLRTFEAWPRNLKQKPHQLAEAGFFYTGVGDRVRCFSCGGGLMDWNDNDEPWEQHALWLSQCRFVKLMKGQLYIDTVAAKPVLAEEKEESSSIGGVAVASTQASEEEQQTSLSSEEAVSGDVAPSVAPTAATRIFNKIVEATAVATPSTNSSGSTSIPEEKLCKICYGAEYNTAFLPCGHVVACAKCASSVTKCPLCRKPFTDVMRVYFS
# What was measured:
# XIAP [1] = molecular target: T2, XIAP (Homo sapiens, UniProt P98170); test: In vitro XIAP self-conjugation assay; format: biochemical
# T2 construct: Full length xiap was amplified by PCR and subcloned into the EcoRI, ApaI site of this pcDNA3; made in house; host or cells: in vitro transcription-translation system (Promega); UBCH5C from E. coli BL21 (pLysS)
# T2 sequence (P98170 whole entry): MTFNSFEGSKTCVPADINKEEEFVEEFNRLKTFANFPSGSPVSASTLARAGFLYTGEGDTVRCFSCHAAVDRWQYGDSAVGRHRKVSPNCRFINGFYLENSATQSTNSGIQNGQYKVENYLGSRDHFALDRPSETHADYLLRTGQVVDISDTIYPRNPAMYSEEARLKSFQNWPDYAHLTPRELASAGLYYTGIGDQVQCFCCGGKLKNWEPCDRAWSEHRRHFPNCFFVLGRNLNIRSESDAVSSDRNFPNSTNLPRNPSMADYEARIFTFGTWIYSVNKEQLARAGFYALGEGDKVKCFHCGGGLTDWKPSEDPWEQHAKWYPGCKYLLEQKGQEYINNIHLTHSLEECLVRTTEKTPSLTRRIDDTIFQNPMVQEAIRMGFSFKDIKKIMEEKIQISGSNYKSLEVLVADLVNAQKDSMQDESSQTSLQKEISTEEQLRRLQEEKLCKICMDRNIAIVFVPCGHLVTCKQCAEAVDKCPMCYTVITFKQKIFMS
# Method: IAP-E2 Binding Assay for Measuring Self-Conjugation
# ^35S-methionine labeled DIAP1 or XIAP was generated in an in vitro transcription-translation system (Promega) from diap1-pET14b and xiap-pcDNA3.1 respectively. For purification of His-UBCD1 and His-UBCH5C, ubcD1-pET14b and ubcH5C-pT7-7 were expressed in BL21 (pLysS) and purfied on a Ni-column according to the manufacturer's protocol (Novagen). ^35S-DIAP1 or ^35S-XIAP was incubated with purified UBCD1 or UBCH5C respectively in the absence or presence of the W-7, H2-9 or H2-9W7 peptides. Following incubation of 15 min in room temperature in 20 mM Tris pH7.6, 2 mM DTr, Ni-NTA Agarose beads (Qiagen) were added for additional 30 minutes. The beads were subsequently washed four times with the Tis/DTT buffer, eluted with Laemli buffer and subjected to 10% SDS-PAGE. ^35S-DIAP1 or ^35S-XIAP was visualized by Phosphorimaging.
# ^35S-methionine labeled mutant and wild type DIAP1, or wild type XIAP were generated in an in vitro transcription-translation system (Promega) from diap1-pET14b, diap1^21-4S pET14b and xiap pcDNA3.1 plasmids. For purification of His-UBCD1 and His-UBCH5C, ubcD1-pET14b and ubcH5C-pT7-7 were expressed in BL21 (pLysS) and purified on a Ni-column according to the manufacturer's protocol (Novagen). […]
# [2] = molecular target: His-DIAP1 21-4S mutant (RING domain mutant, Cys 406 to Tyr), 35S-methionine labeled, in vitro translated from diap1 21-4S pET14b (UniProt Q24306)
# [3] = molecular target: DIAP1 (Drosophila IAP1), wild type, 35S-methionine labeled, in vitro translated from diap1-pET14b (UniProt Q24306)
# XIAP [4] = molecular target: T2, XIAP; test: In vitro ubiquitination reaction of 35S-XIAP; format: biochemical
# Method: (§1) In Vitro Ubiquitination Reaction
# ^35S-methionine labeled mutant and wild type DIAP1, or wild type XIAP were generated in an in vitro transcription-translation system (Promega) from diap1-pET14b, diap1^21-4S pET14b and xiap pcDNA3.1 plasmids. For purification of His-UBCD1 and His-UBCH5C, ubcD1-pET14b and ubcH5C-pT7-7 were expressed in BL21 (pLysS) and purified on a Ni-column according to the manufacturer's protocol (Novagen). In vitro ubiquitination assays were carried out in a total volume of 12.5 μl and contained: ^35S-methionine labeled wild type or mutant DIAP1 or Wild type XIAP (approximately 10,000 cpm), and 250 ng E1 (made in baculovirus; vector is the kind gift of Dr. Kaznbiro Iwai, University of Osaka, Osaka Japan). Unless otherwise stated, 1.2 μg His-UBCD1 or His-UBCH5C was used in each reaction Reaction mire contained also 40 mM Tris-HCl, pH 7.6, 5 mM MgCl2, 1 mM DTT, 5 μg ubiquitin, 100 ng Ubiquitin-aldehyde, 2 mM ATPγS [Adenosine 5′-O-(3-thiotriphosphate)]. Reactions were incubated for 50 min at 37° C., and resolved, following addition of a sample buffer on SDS-PAGE (10%). Gels were dried and proteins visualized via Phosphorimaging (Fuji, Japan).
# DIAP1 [5] = test: In vitro ubiquitination reaction / self-conjugation of 35S-DIAP1; format: biochemical, Drosophila; details: 35S-DIAP1 with E1 and ubiquitin
# Method: as §1
# ^35S-methionine labeled mutant and wild type DIAP1, or wild type XIAP were generated in an in vitro transcription-translation system (Promega) from diap1-pET14b, diap1^21-4S pET14b and xiap pcDNA3.1 plasmids. For purification of His-UBCD1 and His-UBCH5C, ubcD1-pET14b and ubcH5C-pT7-7 were expressed in BL21 (pLysS) and purified on a Ni-column according to the manufacturer's protocol (Novagen). In vitro ubiquitination assays were carried out in a total volume of 12.5 μl and contained: ^35S-methionine labeled wild type or mutant DIAP1 or Wild type XIAP (approximately 10,000 cpm), and 250 ng E1 (made in baculovirus; vector is the kind gift of Dr. Kaznbiro Iwai, University of Osaka, Osaka Japan). […]
# In order to determine whether both amino acid consensus sequences described above are essential for IAP degradation; peptides were generated, with amino acid sequences as described in Tables 1, 3 and 5 above, containing one of each amino acid consensus sequence, or both and their ability to stimulate in vitro IAP ubiquitination was assessed (FIG. 13). ^35S-methionine labeled wild type DIAP1 was incubated with 250 ng E1 and ubiquitin, with or without the addition of the RPR wild type protein, or peptides containing the RHG amino acid consensus sequence of the RPR HID or GRIM proteins, and the reaction products were resolved by SDS-PAGE.
# Diap1 in Cos-7 cells = molecular target: T1, Diap1 in Cos-7 cells; test: Cellular stability of DIAP1 (cycloheximide chase, Western blot); format: cell-based; details: Cos-7 cells co-transfected with Diap1-Flag and RPR-HA, cycloheximide 30 minute chase
# Method: Cellular Stability of DIAP1
# Cos-7 cells were transfected with 1 μg of wild-type (wt) Diap1-Flag-pcDNA3 along with 1 μg RPR-HA-pcDNA3 or 1 μg pcDNA3 vector (to maintain an equal amount of DNA in all transfections). Transfections were carried out by using FuGene™. 30 h aer transfection, 100 μg cycloheximide (Sigma) was added to each 60 mm dish for 0, 30, 60 min. Cells were harvested and lysed. Equal amount of protein were resolved via SDS-PAGE (10%) and blotted onto riocellulose paper. Diap1 was monitored by Western blot analysis using anti-Diap1 antibody and ECL.
# In order to determine the effect of the IAP inhibitor (IAPi), Reaper's expression on IAP protein stability, a pulse-chase experiment was conducted using Cos-7 cells co-transfected with Diap1-Flag-pcDNA3 and RPR-HA-pcDNA3 or pcDNA3 vector alone treated with cycloheximide for 0, 30 or 60 minutes, followed by cell lysis, and immunoblot analysis.
# DIAP1 [6] = test: Ectopic expression (Gal4/UAS) in Drosophila imaginal discs and embryos, anti-DIAP1 labeling; format: in vivo
# Excerpt: Mitotic recombination was induced in the developing eye imaginal discs using the Flp-FRT method36 and ey-flipase. Gal4/UAS system was used for ectopic expression.
# GST-DIAP16 was expressed in BL21 (pLysS) bacteria, and was gel purified before immunizing rabbits (Cocalico Biologicals). diap1(WT)-pET14b was used to express His-DIAP1 in BL21(pLysS) and was purified according to the manufacturer's protocol (Novagen) and immobilized on nitrocellulose paper to affinity purify anti-DIAP1 antisera Rabbit anti-β-galactosidase antibody (Cappel, ICN), mouse-anti-β-gatosdase antibody (Sigma), monoclonal anti-Engrailed antibody (Developmental Studies Hybridoma Bank), Rabbit CM1 antibody24 and mouse anti-HA antibody (Babco) were used to stain embryos and imaginal discs under standard conditions. For western blots, 6-18 h hour embryos were homogenized in the lysis buffer (20 mM Tris pH 7.5, 100 mM NaCl, 1% NP-40, 2 mM DTT) and the cell debns was spun down. The supernatant was run on 15% SDS-PAGE gels, transferred to nitrocellulose sheets and probed with Rabbit anti-DIAP1 antibody. Western blot was detected with ECL (Amersham).
# IAP degradation in thymocytes is a regulated process, wherein glucocorticoids can trigger IAP degradation by unknown mechanisms. To determine whether DIAP1 degradation is also regulated in Drosophila, we co-expressed the cell death promoting protein RPR and the baculovirus p35 caspase inhibitor^21 in the wing imaginal disc posterior compartment using the engrailed (en)-Gal4 driner^22. Expression of p35 prevented RPR-expressing cells from dying, and the resulting cell population not undergoing apoptosis enabled us to observe cellular changes downstream of RPR. Whereas animals expressing RPR alone died as embryos, those compressing RPR and p35 survived to adulthood with wings indistinguishable from wild type (FIG. 2a). […] The wing imaginal discs were also labeled with CM1 antibody, which detects activated caspase-3 in humans and cross-reacts with activated caspases in Drosophila^23,24. In the control anterior compartment, sporadic apoptotic cells were intensely labeled with CM1.
# Thus, the effect of the RING finger mutations on RPR-dependent DIAP1 degradation in embryos was determined. The protein distribution of DIAP1 was analyzed in embryos that express RPR under the prd-Gal4 driver (FIG. 3a, c). In wild type embryos, DIAP1 is homogenously distributed (FIG. 3b).
molecule,measurement,setting,value
AVPFYLPE QWRFLATVVL (AVPFYLPEQWRFLATVVL; Drosophila melanogaster) [Peptide H9-W],XIAP self-conjugation in vitro,XIAP [1],greatest effect
"His-UBCD1 (Drosophila ubiquitin conjugating enzyme UbcD1, purified from E. coli)","in vitro ubiquitination of 35S-DIAP1 (E1, His-UBCD1, ubiquitin; SDS-PAGE, Phosphorimaging)",[2],"the His-DIAP1^21-4S mutant (RING domain mutant) did not (lane 7), in the presence of ubcD1"
same,"in vitro ubiquitination of 35S-DIAP1 (E1, His-UBCD1, ubiquitin; SDS-PAGE, Phosphorimaging)",[3],Wild-type DIAP1 (lane 4) showed marked ubiquitination
AVAPYIPDQATLLR QWRFLATVVL (AVAFYIPDQATLLRQWRFLATVVL; Drosophila melanogaster) [Peptide R15W],XIAP self-conjugation in vitro,XIAP [1],greatest effect
"Reaper: Drosophila IAP inhibitor (IAPi) protein REAPER, wild type; used as protein or expressed from a transgene/plasmid (protein) MAVAFYIPDQATLLREAEQKEQQILRLRESQWRFLATVVLETLRQYTSCHPKTGRKSGKYRKPSQ",auto-ubiquitination of human XIAP,XIAP [4],strongly stimulated
same,IAP (DIAP1) self-conjugation / auto-ubiquitination in vitro,DIAP1 [5],resulted in auto-ubiquitination
same,IAP (Diap1) protein level / half-life,Diap1 in Cos-7 cells,dramatic reduction in detectable IAP protein
same,DIAP1 downregulation in embryos,"DIAP1 [6]; RING domain mutant background, diap1 33-1S and diap1 22-8S alleles",no longer able to downregalate DIAP1
same,DIAP1 protein levels in embryos,"DIAP1 [6]; expression under prd-Gal4 driver, wild type diap1",DIAP1 protein levels decrease
same,diap1-lacZ expression,"DIAP1 [6]; wing imaginal disc posterior compartment, co-expressed with p35 under en-Gal4",increased
same,anti-DIAP1 labeling,"DIAP1 [6]; wing imaginal disc posterior compartment, co-expressed with p35 under en-Gal4, compared to anterior compartment",reduced anti-DIAP1 labeling
